The values below come from PMC10952193, “Structure and Function of the α‐Hydroxylation Bimodule of the Mupirocin Polyketide Synthase” (Angewandte Chemie (Weinheim an Der Bergstrasse, Germany), 2023).

Data set [1] concerns the molecule itself. The experiment in a line: SEC; size exclusion chromatography of purified MupA at higher concentrations (>2 mg/ml).
Data set [2] deals with the molecule itself. As to the kind of experiment: SEC; size exclusion chromatography of purified MupA (lower concentrations). Background: In gel filtration, larger molecules generally elute earlier.
Data set [3] deals with the molecule itself. As to the kind of experiment: not stated; purification of recombinant Fre (Figure S6); how the dimer was shown is not told in the main text.

B1: MupA (enzyme, Pseudomonas fluorescens, UniProt Q9AH80 1-369, looked up)
chain: MSVEQLLGLGVTNAARAPRQPAFSLLFFSDVREDISASEKYEFARSLTLFGDAQGFEAVYFPERHFHEFGAIYPDSAVMAASLIPQTRHIRFRTAGISLPLHHPARVVESWSMNDVLSGGRVDLGFGSGWSRPDFLLAPHAYEDRREVMWQRIEQVRRLWAGERLSFPGPGGDPVSVVTFPRPLQTSLNVWILVAQNTESFIAAGKAGFNVFTMLYGIDLPDLAEKIGLYRQARRDAGFDPASGRVTLMLHTLVGPDSAWVRRAVEAPFKDYIRSSLVAHMKARATPDGRPLDATEQENVLQYAFERYYETGALFGTVDEVRYRVGQVLETGVDEIACLMDFGVDYAVVHQSLPYLEQLVASFQERSAQ
notes: MupA, trans-acting flavin-dependent monooxygenase of the mupirocin biosynthetic gene cluster of Pseudomonas fluorescens; Dimeric by SEC; a dimer of dimers above 2 mg/ml; Used unlabelled in the NMR experiments; also called flavin-dependent monooxygenase (FMO); FMNH2-dependent oxygenase
For B1, the results for the “stoichiometry N” value in data set [1] and in data set [2] were 4 and 2, respectively.

B2: Fre (enzyme, E. coli, UniProt P0AEN1 1-233, looked up)
chain: MTTLSCKVTSVEAITDTVYRVRIVPDAAFSFRAGQYLMVVMDERDKRPFSMASTPDEKGFIELHIGASEINLYAKAVMDRILKDHQIVVDIPHGEAWLRDDEERPMILIAGGTGFSYARSILLTALARNPNRDITIYWGGREEQHLYDLCELEALSLKHPGLQVVPVVEQPEAGWRGRTGTVLTAVLQDHGTLAEHDIYIAGRFEMAKIARDLFCSERNAREDRLFGDAFAFI
notes: Fre, NAD(P)H:flavin oxidoreductase of E. coli, GenBank M61182; also called oxidoreductase Fre; E. coli Fre; source: E. coli, recombinant, overexpressed, purified
For B2, in data set [3], the stoichiometry N (as a rule, the number of molecules, sites or subunits per partner or assembly) is 2.
